This note sets out measurements from the supplement of paper PMC10567573.

± gives the standard deviation.

The series can be described thus: protein stability index of a GFP-peptide fusion (GPS, HEK-293T) (PSI 1-6); higher = more stable.
Setting [1] is: treatment: DMSO, c terminus: a fixed tail appended.
Where [2] appears, read: treatment: MLN4924 1 uM, 8 h, c terminus: a fixed tail appended.
Setting [3] is: treatment: DMSO, c terminus: native.
Setting [4] is: treatment: MLN4924 1 uM, 8 h, c terminus: native.
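Also: 24-mer peptide tiles fused after GFP, lentivirally expressed, FACS-sorted into six equal bins by GFP/DsRed ratio, decoded by Illumina sequencing, PSI is the read-weighted mean bin number.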

Consider ELAGVDTELLAERFYYQALSVAPQ [SMG5], for which the protein stability index under setting [1] was determined as 2.68 ± 0.25 and the protein stability index under setting [2] amounted to 2.88 ± 0.16.
For the sequence ELHEECEGNHPSARKLTAQRRAST [NET1], the protein stability index under setting [1] turned out to be 4.92 ± 0.21 and the protein stability index under setting [2] worked out at 5.09 ± 0.15.
In the case of ELHPESGEEAVTLVEDMQRELGRL [ZNF263], the protein stability index runs as follows: under setting [1], 4.88 ± 0.41; under setting [2], 5.13 ± 0.26.
Take ELLCELGRPSMVWLSANPCPHCGD [PRAME]: the protein stability index amounted to 2.08 ± 0.043 under setting [1] and 2.28 ± 0.31 under setting [2].
As to ELNKQVVSSSEQLQSCQAEIIELR [KRT34], the protein stability index under setting [1] was 3.82 ± 0.33 and the protein stability index under setting [2] is 4.04 ± 0.53.
With ELSRSRKLYGQRERVWALAQEKAA [FCHSD1], the protein stability index was 3.04 ± 0.33 under setting [1] and 3.47 ± 0.22 under setting [2].
For ELTATFTKFDRDGNRILDEKEQEK [PKD2L1], the protein stability index was found to be 5.38 ± 0.11 under setting [1] and 5.17 ± 0.18 under setting [2].
ENANLQEYVEKETQEKKRLSRTNE [MTUS2]: the protein stability index is 5.33 ± 0.45 under setting [1] and 5.35 ± 0.18 under setting [2].
ENCTLVTTFRGHTGGVTALCWDPV [WDFY2]: the protein stability index is, setting by setting: under setting [1], 2.53 ± 0.32; under setting [2], 2.38 ± 0.18.
For the sequence ENTCLLRGFSGGILAFLVLEAVAG [TSPAN10], the protein stability index worked out at 3.27 ± 0.15 under setting [1] and 2.58 ± 0.41 under setting [2].
With EPEQTGADAAEDEEVDVTSVDPIA [RBBP5], the protein stability index turned out to be 5.64 ± 0.18 under setting [1] and 5.55 ± 0.33 under setting [2].
In the case of EPMWSGSTMRRMALRPTAFSGCLN [EMID1], the protein stability index came out at 2.82 ± 0.27 under setting [1] and 2.79 ± 0.16 under setting [2].
Turning to EPNTFSPANVDASVMFRKWRDSKG [UBE2R2], the protein stability index reads like this: under setting [1], 4.16 ± 0.46; under setting [2], 4.4 ± 0.3.
With EPPEEPEQCPVIDSQAPAGSLDLV [SPDEF], the protein stability index runs as follows: under setting [1], 5.37 ± 0.17; under setting [2], 5.51 ± 0.18.
Take EPPPVKQELPPYNGFGLVEDSAQN [EFHC1]: the protein stability index by setting is: under setting [1], 5.15 ± 0.059; under setting [2], 5.15 ± 0.066.
Regarding EPRQRRLLLLDLLALYTPVGAAGS [ANKRD9], the protein stability index by setting is: under setting [1], 2.65 ± 0.57; under setting [2], 2.44 ± 0.88.
Turning to EQNQEGDAAYRKALDLAREFLPQG [AUH], the protein stability index is 4.42 ± 0.19 under setting [1] and 4.44 ± 0.37 under setting [2].
Taken in the same sequence, the figures for ERDIEIGFLPWLMNEVEKTMEYSM [RSPH3] were 2.41 ± 0.46 and 2.42 ± 0.18.
In the case of ERELLGQDEETAMRKSLGEEELS [RSPH3], the protein stability index turned out to be 5.48 ± 0.4 under setting [3] and 5.575 ± 0.042 under setting [4].
For ERERQPCGDGNTETHRAPDLVQWT [SOAT2], the protein stability index runs as follows: under setting [1], 4.92 ± 0.06; under setting [2], 4.65 ± 0.24.
For ERLVVLDYIIRNTDRGNDNWLIKY [PI4K2A], in that order: 2.2 ± 0.65 and 2.49 ± 0.65.
Turning to ESCEEKNQLILTASADRTVIVWDG [WDR41], the protein stability index is, setting by setting: under setting [1], 4.01 ± 0.085; under setting [2], 3.79 ± 0.1.
For ESDSCVSFEAPLTPLIQQRARDSP [PSD2], the protein stability index under setting [1] was 5.02 ± 0.16 and the protein stability index under setting [2] came to 4.92 ± 0.24.
For ESGVSVSNSQPTNESHSIKAILKN [SLC29A1], in that order: 5.03 ± 0.53 and 4.9 ± 0.46.
ESKVKDILSKVQKNHVGKPLLKMD [FAM98B]: the protein stability index was found to be 3.49 ± 0.17 under setting [1] and 3.79 ± 0.19 under setting [2].
Taken in the same sequence, the figures for ESRKSKRRNSEFEIFVDCDINREQ [TPH1] were 4.85 ± 0.31 and 4.92 ± 0.59.
As for ETIEGAPPLWAASAAGHLDVVRSL [FEM1A], the protein stability index came to 3.78 ± 0.16 under setting [1] and 3.72 ± 0.13 under setting [2].
As to ETSRSHDLEAVVPQNGSETGWARK [ATP23], the protein stability index is, setting by setting: under setting [1], 4.95 ± 0.2; under setting [2], 5.21 ± 0.12.
EVEEADGNKQWWFGGGCDLTPTYL [CPOX] came in with a protein stability index under setting [1] of 3.43 ± 0.49 and a protein stability index under setting [2] of 3.36 ± 0.39.
As for EVEGTKPSATEMIWAVLAAFNKS [GOLPH3L], the protein stability index by setting is: under setting [3], 2.4 ± 0.18; under setting [4], 2.4 ± 0.33.
In the case of EVEIVGVQEHARCVHPRGGVIQSV [C18orf25], the protein stability index came to 3.45 ± 0.35 under setting [1] and 3.6 ± 0.31 under setting [2].
On to EVVNMAVIVPKEEGVISVSEDRTV [WDFY2], for which the protein stability index was 4.04 ± 0.42 under setting [1] and 4.22 ± 0.34 under setting [2].
On to FACPSKTDFFKNIMNFIDIVAIIP [KCNA1], for which the protein stability index amounted to 3.29 ± 0.58 under setting [1] and 3.1 ± 0.49 under setting [2].
Taken in the same sequence, the figures for FAELSVDMEKILEIIRVILKLYEQ [CCNC] were 2.2 ± 0.12 and 2.69 ± 0.25.
Taken in the same sequence, the figures for FDDEEPRKFYVHIKPAPARAPACS [FCHO1] were 3.27 ± 0.14 and 3.29 ± 0.38.
In the case of FDEPFLTRNVQSVSIIDTELKVKD [TRIP13], the protein stability index amounted to 4.65 ± 0.19 under setting [1] and 4.49 ± 0.068 under setting [2].
Taken in the same sequence, the figures for FDGTAHLSSVEAYNIRTDSWTTVT [KLHL12] were 2.58 ± 0.38 and 2.62 ± 0.52.
For the sequence FDTFIQKTKKLYIDSRARRNLGSI [SEC22B], the protein stability index is, setting by setting: under setting [1], 2.48 ± 0.5; under setting [2], 2.22 ± 0.12.
The sequence FEPVKSFFKGLVEAVESTLQTPLD [TRIM14] displayed a protein stability index under setting [1] of 2.19 ± 0.2 and a protein stability index under setting [2] of 2.4 ± 0.23.
On to FEQGKWDVFSENLLADVKGARAAL [STX11], for which the protein stability index reads like this: under setting [1], 2.67 ± 0.14; under setting [2], 2.72 ± 0.45.
For the sequence FEQYCAWQLFLAHNIPLETIIPIL [INTS3], the protein stability index reads like this: under setting [1], 3.27 ± 0.74; under setting [2], 2.85 ± 0.34.
FFFRHGHRGLLTMQLKSPMPSSTT [SPAG8]: the protein stability index came to 2.14 ± 0.26 under setting [1] and 2 ± 0.23 under setting [2].
Turning to FFVPLSYLLMVTVILLPYVSKVTG [TMEM175], the protein stability index worked out at 3.33 ± 0.26 under setting [1] and 3.11 ± 0.31 under setting [2].
As to FGSRSLYSLGGVRSLNVASGSGKS [KRT71], the protein stability index is 2.35 ± 0.77 under setting [1] and 3.01 ± 0.82 under setting [2].
Taken in the same sequence, the figures for FKDYIQERSDPVEQGKPVIPAAVL [ETS2] were 4.08 ± 0.2 and 3.97 ± 0.27.
For the sequence FLAENSAFPKMALQAKQDGKKDVS [LCOR], the protein stability index is, setting by setting: under setting [1], 4.23 ± 0.29; under setting [2], 4.36 ± 0.36.
As to FLEQRPQSPTLEFLLRNSQRTVGQ [EDARADD], the protein stability index was found to be 3.15 ± 0.32 under setting [1] and 3.43 ± 0.34 under setting [2].
Take FLLSVYAPGSSVEYQCQNLYQLEG [CFHR2]: the protein stability index worked out at 2.75 ± 0.48 under setting [1] and 2.52 ± 0.44 under setting [2].
Consider FLPGGDMMTLLMKKDTLTEEETQF [STK38L], for which the protein stability index was determined as 2.89 ± 0.6 under setting [1] and 3.44 ± 0.51 under setting [2].
Consider FMLRYLYSQKESGHSNWLGDPEEP [ATL3], for which the protein stability index by setting is: under setting [1], 2.75 ± 0.33; under setting [2], 2.06 ± 0.48.
On to FNGKGKKIRKPRTIYCSLQLQALN [DLX1], for which the protein stability index by setting is: under setting [1], 2.38 ± 0.5; under setting [2], 2.75 ± 0.31.
Regarding FNIVYIYTSELYPTVIRNVGLGTC [SLC22A15], the protein stability index was determined as 3.07 ± 0.23 under setting [1] and 3.07 ± 0.62 under setting [2].
Turning to FNMWGFGRVSKQASQPVKKQQENA [WDR41], the protein stability index is, setting by setting: under setting [1], 3.12 ± 0.25; under setting [2], 3.54 ± 0.18.
Consider FNNGAHMSLLPDKKTVHYYAELGQ [PLK2], for which the protein stability index under setting [1] amounted to 2.92 ± 0.34 and the protein stability index under setting [2] came to 2.66 ± 0.25.
In turn, FPGVVARPIGEFRSNADYQYQLLR [CNOT7] came in with a protein stability index under setting [1] of 3.05 ± 0.3 and a protein stability index under setting [2] of 2.97 ± 0.2.
Taken in the same sequence, the figures for FQGSQGRAYLFNSVVNVGCGPAEE [YPEL3] were 2.57 ± 0.27 and 3.22 ± 0.1.
Turning to FRLTTLLMSGCSSELKNRMEYALN [PLK2], the protein stability index runs as follows: under setting [1], 2.46 ± 0.53; under setting [2], 2.35 ± 0.47.
For FRQRCLERMRNSRDRLLNRYRQAG [RPAIN], in that order: 3.15 ± 0.12 and 3.2 ± 0.15.
As for FRVFHCTQYVRHSSDPFYTPEPDT [TPH1], the protein stability index is, setting by setting: under setting [1], 2.15 ± 0.19; under setting [2], 2.27 ± 0.35.
In the case of FRVNCYPGIDIREDLAQKLNLEED [HESX1], the protein stability index runs as follows: under setting [1], 3.52 ± 0.34; under setting [2], 3.69 ± 0.35.
For FRVTLWVHPFVNYNSSRFGEGVER [MYORG], in that order: 2.77 ± 0.89 and 2.62 ± 0.41.
Take FSGSLEPVACGSVLSEGSPLTEQE [SRPK2]: the protein stability index is 5.23 ± 0.17 under setting [1] and 5.46 ± 0.16 under setting [2].
In turn, FSLKQEETLDYGKNYNYGMHYCAV [NEUROD6] had a protein stability index under setting [1] of 2.4 ± 0.18 and a protein stability index under setting [2] of 2.07 ± 0.34.
Take FSTQYRCFSVSMLAGPNDRSDVEK [UFD1]: the protein stability index amounted to 2.68 ± 0.39 under setting [1] and 3.01 ± 0.57 under setting [2].
Take FSVLMEKLCKKGLAATTSMAYAKL [FANCE]: the protein stability index came to 3.19 ± 0.73 under setting [1] and 2.75 ± 0.56 under setting [2].
In turn, FTKETTQKNFNNLYGTKGNYTSRV [TRIM29] showed a protein stability index under setting [1] of 2.26 ± 0.42 and a protein stability index under setting [2] of 2.61 ± 0.27.
Consider FVAGGISGTVAAVLTLPFDVVKTQ [SLC25A39], for which the protein stability index came to 2.95 ± 0.63 under setting [1] and 2.76 ± 0.84 under setting [2].
Turning to FVKYLIRPQPWLEKEIEEATKKLG [FUT8], the protein stability index runs as follows: under setting [1], 2.31 ± 0.29; under setting [2], 2.47 ± 0.17.
Taken in the same sequence, the figures for FWSVMFFLMLINLGLGSMIGTMAG [SLC6A17] were 3.2 ± 0.55 and 3.49 ± 0.57.
For FYFENLWSRNSKPVHTTILNPHIH [CAMK2A], the protein stability index by setting is: under setting [1], 2.33 ± 0.51; under setting [2], 2.5 ± 0.45.
As to GASSCDGCKGFFRRSVRKNHMYSC [HNF4A], the protein stability index under setting [1] stood at 2.36 ± 0.22 and the protein stability index under setting [2] was 2.62 ± 0.26.
Regarding GAVAPMDFTTAAEDQPINLCDKLP [NOL4L], the protein stability index stood at 4.7 ± 0.1 under setting [1] and 4.77 ± 0.34 under setting [2].
